B1: myosin phosphatase targeting subunit 1 (MYPT1) (other)
chain: MKMADAKQKRNEQLKRWIGSETDLEPPVVKRQKTKVKFDDGAVFLAACSSGDTDEVLKLLHRGADINYANVDGLTALHQACIDDNVDMVKFLVENGANINQPDNEGWIPLHAAASCGYLDIAEFLIGQGAHVGAVNSEGDTPLDIAEEEAMEELLQNEVNRQGVDIEAARKEEERIMLRDARQWLNSGHINDVRHAKSGGTALHVAAAKGYTEVLKLLIQAGYDVNIKDYDGWTPLHAAAHWGKEEACRILVDNLCDMEMVNKVGQTAFDVADEDILGYLEELQKKQNLLHSEKRDKKSPLIESTANMDNNQSQKTFKNKETLIIEPEKNASRIESLEQEKVDEEEEGKKDESSCSSEEDEEDDSESEAETDKTKPLASVTNANTSSTQAAPVAVTTPTVSSGQATPTSPIKKFPTTATKISPKEEERKDESPATWRLGLRKTGSYGALAEITASKEGQKEKDTAGVTRSASSPRLSSSLDNKEKEKDSKGTRLAYVAPTIPRRLASTSDIEEKENRDSSSLRTSSSYTRRKWEDDLKKNSSVNEGSTYHKSCSFGRRQDDLISSSVPSTTSTPTVTSAAGLQKSLLSSTSTTTKITTGSSSAGTQSSTSNRLWAEDSTEKEKDSVPTAVTIPVAPTVVNAAASTTTLTTTTAGTVSSTTEVRERRRSYLTPVRDEESESQRKARSRQARQSRRSTQGVTLTDLQEAEKTIGRSRSTRTREQENEEKEKEEKEKQDKEKQEEKKESETSREDEYKQKYSRTYDETYQRYRPVSTSSSTTPSSSLSTMSSSLYASSQLNRPNSLVGITSAYSRGITKENEREGEKREEEKEGEDKSQPKSIRERRRPREKRRSTGVSFWTQDSDENEQEQQSDTEEGSNKKETQTDSISRYETSSTSAGDRYDSLLGRSGSYSYLEERKPYSSRLEKDDSTDFKKLYEQILAENEKLKAQLHDTNMELTDLKLQLEKATQRQERFADRSLLEMEKRERRALERRISEMEEELKMLPDLKADNQRLKDENGALIRVISKLSK
notes: also called HA-MYPT1; HA-tagged-MYPT1
B2: HA-Optn Δ131-297 (other)
chain: MSHQPLSCLTEKEDSPSESTGNGPPHLAHPNLDTFTPEELLQQMKELLTENHQLKEAMKLNNQAMKGRFEELSAWTEKQKEERQFFEIQSKEAKERLMALSHENEKLKEELGKLKGKSERSSEDPTDDSREVEALNLQVTSLFKELQEAHTKLSKAELMKKRLQEKCQALERKNSAIPSELNEKQELVYTNKKLELQVESMLSEIKMEQAKTEDEKSKLTVLQMTHNKLLQEHNNALKTIEELTRKESEKVDRAVLKELSEKLELAEKALASKQLQMDEMKQTIAKQEEDLETMTILRAQMEVYCSDFHAERAAREKIHEEKEQLALQLAVLLKENDAFEDGGRQSLMEMQSRHGARTSDSDQQAYLVQRGAEDRDWRQQRNIPIHSCPKCGEVLPDIDTLQIHVMDCII
B3: type 1 protein phosphatase catalytic subunit PP1β (enzyme, UniProt P62140 1-327, looked up)
chain: MADGELNVDSLITRLLEVRGCRPGKIVQMTEAEVRGLCIKSREIFLSQPILLELEAPLKICGDIHGQYTDLLRLFEYGGFPPEANYLFLGDYVDRGKQSLETICLLLAYKIKYPENFFLLRGNHECASINRIYGFYDECKRRFNIKLWKTFTDCFNCLPIAAIVDEKIFCCHGGLSPDLQSMEQIRRIMRPTDVPDTGLLCDLLWSDPDKDVQGWGENDRGVSFTFGADVVSKFLNRHDLDLICRAHQVVEDGYEFFAKRQLVTLFSAPNYCGEFDNAGGMMSVDETLMCSFQILKPSEKKAKYQYGGLNSGRPVTPPRTANPPKKR
notes: Endogenous protein or transfected Flag-tagged PP1β (ImaGenes), as said under assay; also called PP1cβ; Flag-tagged-PP1β

What was measured:
[1] = molecular target: T1, Optineurin (Optn), wild type (human, UniProt Q96CV9 1-577); assay: TAP and co-immunoprecipitations, title of FIG. 4
T1 construct: Full-length wild-type human Optn; also called Optn WT; HA-Optn

[2] = molecular target: B1; assay: anti-MYPT1 immunoprecipitation, anti-HA Western blot, transfected HeLa cells (FIG. 4D)
[3] = molecular target: B1; assay: anti-Flag immunoprecipitation of Flag-PP1β, transfected HEK-293T cells (FIG. 4B)

Q: Does B1 bind [1]?
A: binds

Q: Does B2 bind [2]?
A: no binding

Q: Does B3 bind [3]?
A: binds
